Sequences and labels used below:
B1: GST-SURF4^49-60 [human] / CW peptides (KRRHPKKC) [not stated (human or mouse cDNA cloned)] (parent complex)
chain 1: SEQRDYIDTTWN
chain 2: KRRHPKKC

The assay covers variants of B1. Briefly: peptide pull-down (peptides on thiopyridone Sepharose 6B), anti-GST immunoblot quantification; n = 3, mean ± SD; parent: 1; read off a plot. On the technique in general: Immunoblotting shows a protein as a band on a membrane.
Take chain 2 K1A, chain 2 R2A, chain 2 R3A, chain 2 K6A, chain 2 K7A: the ratio to parent was ~0.03.

The values above are taken from paper PMC8931250, “A SURF4-to-proteoglycan relay mechanism that mediates the sorting and secretion of a tagged variant of sonic hedgehog” (Proceedings of the National Academy of Sciences of the …, 2022).
